The experiment has as its target human CD44v6 (CD44 splice variant containing the domain v6) on antigen-positive FaDu cells (human) (UniProt P16070). Nature of the experiment: flow cytometry (FACS) on FaDu cells, FITC-labeled anti-human IgG detection, on ice. (In general: Flow cytometry measures light scatter and fluorescence of single cells or particles in a stream.)

A word on the Kd: it is the constant that tells how readily two partners part at equilibrium.

UniProt P16070, sequence (P16070 21-742, change not shown): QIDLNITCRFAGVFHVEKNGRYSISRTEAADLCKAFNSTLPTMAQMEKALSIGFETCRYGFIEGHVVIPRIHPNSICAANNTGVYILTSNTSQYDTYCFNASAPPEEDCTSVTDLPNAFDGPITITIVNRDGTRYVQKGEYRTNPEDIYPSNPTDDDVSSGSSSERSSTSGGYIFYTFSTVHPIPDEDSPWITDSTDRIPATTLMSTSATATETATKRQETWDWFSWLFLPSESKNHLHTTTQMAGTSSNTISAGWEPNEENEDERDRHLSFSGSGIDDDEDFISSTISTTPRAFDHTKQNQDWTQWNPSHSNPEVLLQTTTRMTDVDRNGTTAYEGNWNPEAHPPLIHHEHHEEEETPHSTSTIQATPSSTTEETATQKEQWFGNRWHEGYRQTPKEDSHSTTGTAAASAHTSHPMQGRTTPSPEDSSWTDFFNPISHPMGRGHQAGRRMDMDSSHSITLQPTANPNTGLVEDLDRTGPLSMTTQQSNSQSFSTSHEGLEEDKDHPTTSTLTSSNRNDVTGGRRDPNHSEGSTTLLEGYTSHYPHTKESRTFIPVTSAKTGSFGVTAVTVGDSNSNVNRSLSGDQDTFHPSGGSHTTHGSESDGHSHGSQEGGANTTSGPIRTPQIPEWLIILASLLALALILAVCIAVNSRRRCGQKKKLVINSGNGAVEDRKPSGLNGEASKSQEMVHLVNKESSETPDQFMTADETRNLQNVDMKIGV

B1: BIWA 4 (antibody, human IgG1, kappa, V domains shown)
VH: EVQLVESGGGLVKPGGSLRLSCAASGFTFSSYDMSWVRQAPGKGLEWVSTISSGGSYTYYLDSIKGRFTISRDNAKNSLYLQMNSLRAEDTAVYYCARQGLDYWGRGTLVTVSS
VL: EIVLTQSPATLSLSPGERATLSCSASSSINYIYWYQQKPGQAPRLLIYLTSNLASGVPARFSGSGSGTDFTLTISSLEPEDFAVYYCLQWSSNPLTFGGGTKVEIKR
B1 gave a Kd of 1 nM.

B2: BIWI 1 (antibody, human IgG1, kappa, V domains shown)
VH: B1 VH
VL: B1 VL
modifications: maytansinoid DM1 linked by a disulfide bond through the SPP-derived thiopentanoate linker; DM1/MAb ratio 3.1 (average for the whole antibody); attachment residues not stated
B2 returned a Kd of 1.8 nM.

The record behind these values is patent EP1391213A1.
